Values quoted from earlier work, collected in article PMC6307816.

Target: EGFR (Homo sapiens) (UniProt P00533)

Kd: < 0.2 nM
Substance: EGF (from UniProt P01133)
